Test system: MS2 coat protein
Experiment: apparent KD of MS2 coat protein; designed switch direction (-1 OFF switch, 1 ON switch): 1; higher = weaker reporter binding
Method in brief: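 SNAP-549-labelled MS2 coat protein was titrated, doubling from 0.7 or 1.5 nM to 3 µM, over designed RNA switches transcribed on Illumina chips by stalled E. coli RNA polymerase. Runs were done without input, with 200 uM small-molecule ligand, or with an oligonucleotide input. Apparent KD is the per-design median over clusters of curve-fitted normalised fluorescence.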

[1] = Eterna round: R95, input ligand: FMN 200 uM
[2] = Eterna round: R95, input ligand: microRNA oligo, concentration not stated
[3] = Eterna round: R95, input ligand: none
[4] = input ligand: microRNA oligo, concentration not stated

Row | Sequence | apparent KD of MS2 coat protein [1] [nM] | apparent KD of MS2 coat protein [2] [nM] | apparent KD of MS2 coat protein [3] [nM] | apparent KD of MS2 coat protein (input ligand: FMN 200 uM) [nM] | apparent KD of MS2 coat protein [4] [nM] | apparent KD of MS2 coat protein (input ligand: none) [nM]
1 | GUGGCCCAGGCACAGGAUAUGUUUCUCGUAACAUGAGGAUCACCCAUGUGCCUAUGAGAUUUUAUGCAGAAGGGUGCACGCCACG [JL Atiinbe mod 01] (puzzle: Same State 2) | 18.5 | 56 | 123 | – | – | –
2 | GUGGUCAAUCAAGGAUAUGGAGCCUUAUUGGCUCCAGAAGGUGGGACAUGAGGAUCACCCAUGUGGCAGUGGUCAAAUGACCAC [Fiskers NG1ss - 34] (Eterna round: R96, puzzle: Same State NG 1) | – | – | – | 149 | 172 | 164
3 | GUGGUCAGACAUGAGGAUCACCCAUGUGGAAUAAAUAACAGACAGGAUAUGUAAUAUAAAAUAUAACAGAAGGGUCGAUUGGUG (Eterna round: R96, puzzle: Same State NG 3) | – | – | – | 79.6 | 64.7 | 93.9
4 | GUGGUCAGACAUGAGGAUCACCCAUGUGGAAUAAAUAACGGACAGGAUAUAUAAUAUAGGAUAUAGUAGAAGGGUUGAUUGGUG (Eterna round: R96, puzzle: Same State NG 3) | – | – | – | 85.8 | 57.7 | 60.2
5 | GUGGUCAGACAUGAGGAUCACCCAUGUGGAAUAAAUAAGGAAUAGGAUAUCGAAUAUAGGAUAUACGAGAAGGGUUGGUUGGUG (Eterna round: R96, puzzle: Same State NG 3) | – | – | – | – | 80 | –
6 | GUGGUCAGACAUGAGGAUCACCCAUGUGGAAUAAAUAAGGGAUAGGAUAUGGAAUAUAGGAUAUACCAGAAGGGUUGGUUGGUG (Eterna round: R96, puzzle: Same State NG 3) | – | – | – | 107 | 87.6 | 95.1
7 | GUGGUGUAGAUACAGGAUAUGUUGCUCGUAACAUGAGGAUCACCCAUGUAUCUAUGAGAAUAAAUGCAGAAGGGUGCACACCACU [Mat - Same State 2 - Mod of UCT - D74] (Eterna round: R96, puzzle: Same State 2) | – | – | – | 26.1 | 197 | 489
8 | GUGGUGUAGAUACAGGAUAUGUUGCUCGUAACAUGAGGAUCACCCAUGUAUCUAUGAGAAUAAAUGCAGAAGGGUGCACACCACU [Mat - Same State 2 - Mod of UCT - D74] (puzzle: Same State 2) | 24.7 | 467 | 639 | – | – | –
9 | GUGUUACAUGAGGAUCACCCAUGUUGUUGUAGAUAAGGAUAUAUGGUAACGAGAGAAAUAAUAGAAGGUAUUAGGC [JR_SS1_Sub061] (puzzle: Same State 1) | – | 34.7 | – | – | – | –
10 | GUUAAACAUGAGGAUCACCCAUGUCAAUGUAGUCGAGGAUAUGGGUAGCCAUGAGGCGUACUAGAAGGCGAGGAGU [Mat - Same State 1 - Mod of JL - D19] (puzzle: Same State 1) | 118 | 69.8 | 80.5 | – | – | –
11 | GUUACAUGAGGAUCACCCAUGUAUGUGUGGGAGUAAGUGUCUUAGGAUAUCUAGUAGUUAAUUUAAGAGAAGGAAGAUUGUUGU [JMF's solution 55] (Eterna round: R96, puzzle: Same State NG 3) | – | – | – | 145 | 81.9 | 104
12 | GUUACAUGAGGAUCACCCAUGUAUGUGUGGGAGUAAGUGUCUUAGGAUAUCUAGUAUUUAACUUAAGAGAAGGAAGAUUGUUGU [JMF's solution 63] (Eterna round: R96, puzzle: Same State NG 3) | – | – | – | 142 | 95.8 | 105
13 | GUUACAUGAGGAUCACCCAUGUAUGUGUGGGAGUAAGUGUCUUAGGAUAUCUAUUAGUUAAAUUAAGAGAAGGAAGAUUGUUGU [JMF's solution 15] (Eterna round: R96, puzzle: Same State NG 3) | – | – | – | – | 91.4 | –
14 | GUUACAUGAGGAUCACCCAUGUAUGUGUGGGAGUAAGUGUCUUAGGAUAUCUGUUAUUCAAUUUAAGAGAAGGAAGAUUGUUGU [JMF's solution 38] (Eterna round: R96, puzzle: Same State NG 3) | – | – | – | 97.1 | 49.5 | 76.5
15 | GUUCCACAUGAGGAUCACCCAUGUCACGAACACGCAGGAUAUUGCCUGAGUUUGGACAGGUAAGAAGGGUGAGAGA [Dibeante] (puzzle: Same State 1) | 64.3 | 31.9 | 28.9 | – | – | –
16 | UAAAUAAAGUAAGGAUAUACAUGAGGAUUUCUCGUAGAAGGUACAAGACAUGAGGAUCACCCAUGUAUCGCUCGAAAGAGCGUA [Mat - Same State NG 1 - JL mod - D22] (Eterna round: R96, puzzle: Same State NG 1) | – | – | – | 126 | 67.5 | 208

Row | Sequence | apparent KD of MS2 coat protein [1] [nM] | apparent KD of MS2 coat protein [2] [nM] | apparent KD of MS2 coat protein [3] [nM] | apparent KD of MS2 coat protein (input ligand: FMN 200 uM) [nM] | apparent KD of MS2 coat protein [4] [nM] | apparent KD of MS2 coat protein (input ligand: none) [nM]
17 | UAAAUAAUGUAAGGAUAUACAUGAGGAAUUCUCGUAGAAGGUACAUGACAUGAGGAUCACCCAUGUAUCGCUCCGUAGAGCGUA [Mat - Same State NG 1 - JL mod - D26] (Eterna round: R96, puzzle: Same State NG 1) | – | – | – | 288 | 5.78 | 48.8
18 | UAAGUCAUGUAAGGAUAUGCAGCCGAAACGGCUGCAGAAGGUACUAUAAUUACAUGAGGAUCACCCAUGUUAUAAAAUUUAUAU [Mat - Same State NG 1 - JL mod - D77] (Eterna round: R96, puzzle: Same State NG 1) | – | – | – | 22.4 | 39 | 54.5
19 | UACAAUCUAUCUGAGGAUAUCAUGAAAAAAACAUGAGGAUCACCCAUGUGCAGGAAAACUGCAUAUGAGAAGGCAGAUAGAUUGA [salish99_SS2_r3_005] (Eterna round: R96, puzzle: Same State 2) | – | – | – | – | 517 | –
20 | UACAAUCUAUCUGAGGAUAUCAUGAAAAAAACAUGAGGAUCACCCAUGUGCAGGAAAACUGCAUAUGAGAAGGCAGAUAGAUUGA [salish99_SS2_r3_005] (puzzle: Same State 2) | 27.4 | 585 | 721 | – | – | –
21 | UACAAUCUAUCUGAGGAUAUCAUGAAUAAAACAUGAGGAUCACCCAUGUGCAGGAUAACUGCAAAUGAGAAGGCAGAUAGAUUGU [Mat - Same State 2 - Mod - D8] (puzzle: Same State 2) | 13.5 | 16 | 24.1 | – | – | –
22 | UAGAACAAGCUUUUUGCCCGUCUUAUAUAACAUGAGGAUCACCCAUGUAAGGUGAAAGUUAGAGAGUGGAGGUUGAA [JR_SHM208A_Sub048] (puzzle: Sensor for hsa-mir-208a) | 216 | 193 | 156 | – | – | –
23 | UAGAAUCUAUCUCAGGAUAUCAUGUCAAAGACAUGAGGAUCACCCAUGUACCAGGAAACUGGUUAUGAGAAGGGAGAUAGAUUCA [Mat - Same State 2 - Mod - D34] (puzzle: Same State 2) | 124 | 98.3 | 241 | – | – | –
24 | UAGAGAGGAAGCGAGGAUAUCGUGGGAGGGACAUGAGGAUCACCCAUGUAGGAUGUUGAGAGGAACGAGAAGGCGCAGGAAAGUA [JR_SS2_Sub076] (puzzle: Same State 2) | 92.4 | 63.5 | 91.2 | – | – | –
25 | UAGUACAAGCUUUUUGCUUGUCUUAUUUAACAUGAGGAUCACCCAUGUAAGUUGAAAGUUAGAGAGUGCACCUUCAA [JR_SHM208A_Sub052] (Eterna round: R96, puzzle: Sensor for hsa-mir-208a) | – | – | – | 17.2 | 17 | 21.6
26 | UAGUACAAGCUUUUUGCUUGUCUUAUUUAACAUGAGGAUCACCCAUGUAAGUUGAAAGUUAGAGAGUGCACCUUCAA [JR_SHM208A_Sub052] (puzzle: Sensor for hsa-mir-208a) | 18.7 | 18.9 | 17.1 | – | – | –
27 | UAGUAUCAACGAGGAUAUAAUAUGUUCAAUUUUUUAUAUUGUUUACAUGAGGAUCACCCAUGUUAUUAGAAGGCGUAUGGGAUU [JR_SSNG2_Sub083] (Eterna round: R96, puzzle: Same State NG 2) | – | – | – | – | 47.2 | –
28 | UAGUAUUAGCGAGGAUAUCGUAUGUUCAAUUUUUUAUAUUGUUUACAUGAGGAUCACCCAUGUUACGAGAAGGCGCAUGGGAUU [JR_SSNG2_Sub081] (Eterna round: R96, puzzle: Same State NG 2) | – | – | – | – | 371 | –
29 | UAGUUUCAACGAGGAUAUAAUAGGUUCUAUUCGUGAUAUUGCGUACAUGAGGAUCACCCAUGUUAUUAGAAGGCGUAUGGGUUU [JR_SSNG2_Sub086] (Eterna round: R96, puzzle: Same State NG 2) | – | – | – | 89.9 | 59.8 | 77.9
30 | UCAAGCGUUUGGCUCGUUUUAUGUUUUGUACAUGAGGAUCACCCAUGUUUUGUACGAUCCAGUUAGAUGGUAUUUUG [JR_SHM208A_Sub039] (puzzle: Sensor for hsa-mir-208a) | 39.6 | 93 | 56.8 | – | – | –
31 | UCGGGCGUACUUGCUGACAUGAGGAUCACCCAUGUAAAUGGGAAGGAUAUGGUUCCGUUUCGGUACCAGAAGGUCCUGGGUGCU [salish99_SSNG3_r04_310] (Eterna round: R96, puzzle: Same State NG 3) | – | – | – | 459 | 748 | 1030
32 | UCUGCAAGAACAGGAUAUGGGUUCAGAGCGGGAGUGCGCUUUGACACAUGAGGAUCACCCAUGUCCCAGAAGGGUUCAUGCGGC [Eseseste] (Eterna round: R96, puzzle: Same State NG 2) | – | – | – | 62.7 | 484 | 364

Reference: the supplement of paper PMC9170038
